Measured values from patent publication EP4626929A2 (dated 2025).

Target: BTLA on human primary B cells (human, UniProt Q7Z6A9 31-289)
Experiment: cell-based or functional assay

B1: BTLA agonist antibody M10825 (antibody, human IgG2, kappa)
heavy: QITLKESGPTLVKPTQTLTLTCTFSGFSLSTSGVGVGWIRQPPGKALEWLAQEFWTGDKRYSPSLKSRLTITKDTSKNQVVLTMTNMDPVDTATYYCTHKLGMNYFDYWGQGTLVTVSSASTKGPSVFPLAPCSRSTSESTAALGCLVKDYFPEPVTVSWNSGALTSGVHTFPAVLQSSGLYSLSSVVTVPSSNFGTQTYTCNVDHKPSNTKVDKTVERKCCVECPPCPAPPVAGPSVFLFPPKPKDTLMISRTPEVTCVVVDVSHEDPEVQFNWYVDGVEVHNAKTKPREEQFNSTFRVVSVLTVVHQDWLNGKEYKCKVSNKGLPAPIEKTISKTKGQPREPQVYTLPPSREEMTKNQVSLTCLVKGFYPSDIAVEWESNGQPENNYKTTPPMLDSDGSFFLYSKLTVDKSRWQQGNVFSCSVMHEALHNHYTQKSLSLSPG
light: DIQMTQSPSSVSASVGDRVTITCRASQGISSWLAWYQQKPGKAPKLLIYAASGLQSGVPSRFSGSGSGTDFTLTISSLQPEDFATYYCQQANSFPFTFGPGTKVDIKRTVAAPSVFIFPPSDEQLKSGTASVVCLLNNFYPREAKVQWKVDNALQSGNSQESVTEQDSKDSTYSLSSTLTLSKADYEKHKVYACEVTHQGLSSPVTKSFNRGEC
- IC50 of inhibition of human primary B cell proliferation: 10.5 nM
